Assays:
[1] = target: LysIME-EF1 CBD (residues 168-237) with an N-terminal 6xHis-tag (E. faecalis phage); assay: SEC; single purified CBD proteins; Superdex 200, 20 mM Tris-HCl pH 8.0, 150 mM NaCl, 0.5 ml/min, 16°C
[2] = target: full-length LysIME-EF1 (wild type), N-terminally 6xHis-tagged (E. faecalis phage); assay: crystal structure; Se-Met WT LysIME-EF1, space group P12(1)1, 1.75 Å, Se-SAD (PDB 6IST)
[3] = target: truncated LysIME-EF1 CBD fragment (8 kDa), product of the internal translation start at M168 (E. faecalis phage); assay: crystal structure; LysIME-EF1 CBD, space group I422, 1.75 Å, one molecule in the asymmetric unit, tetramer by crystallographic symmetry (PDB 6L00)

Row | stoichiometry N [1] | stoichiometry N [2] | stoichiometry N [3] | Substance
1 | 4 |  |  | LysIME-EF1 CBD (residues 168-237) with an N-terminal 6xHis-tag (domain or fragment)
2 |  | 3 | 4 | truncated LysIME-EF1 CBD fragment (8 kDa), product of the internal translation start at M168 (domain or fragment)

From article PMC7098653
